Our source for the Kd values is paper PMC8933513 (2022).

Holding throughout (assay): SPR; BIAcore X-100, room temperature; hAPN/pAPN WT or mutant immobilised on CM5 chips via amine coupling; serially diluted PDCoV RBD WT or mutant flowed over in HEPES buffer (0.01 M HEPES, 0.15 M NaCl, 0.5% surfactant P20, 3 mM EDTA, pH 7.4); steady-state affinity model; each of two experiments listed
The target in assay [1] is porcine aminopeptidase N ectodomain, wild type (pig) (UniProt P15145).
Assay [2] concerns the target human aminopeptidase N ectodomain E742A (human) (UniProt P15144).
Assay [3] addresses human aminopeptidase N ectodomain, wild type (human) (UniProt P15144).
Assay [4] deals with human aminopeptidase N ectodomain E745A (human) (UniProt P15144).
human aminopeptidase N ectodomain E745A (human), sequence (P15144 62-963 E745A): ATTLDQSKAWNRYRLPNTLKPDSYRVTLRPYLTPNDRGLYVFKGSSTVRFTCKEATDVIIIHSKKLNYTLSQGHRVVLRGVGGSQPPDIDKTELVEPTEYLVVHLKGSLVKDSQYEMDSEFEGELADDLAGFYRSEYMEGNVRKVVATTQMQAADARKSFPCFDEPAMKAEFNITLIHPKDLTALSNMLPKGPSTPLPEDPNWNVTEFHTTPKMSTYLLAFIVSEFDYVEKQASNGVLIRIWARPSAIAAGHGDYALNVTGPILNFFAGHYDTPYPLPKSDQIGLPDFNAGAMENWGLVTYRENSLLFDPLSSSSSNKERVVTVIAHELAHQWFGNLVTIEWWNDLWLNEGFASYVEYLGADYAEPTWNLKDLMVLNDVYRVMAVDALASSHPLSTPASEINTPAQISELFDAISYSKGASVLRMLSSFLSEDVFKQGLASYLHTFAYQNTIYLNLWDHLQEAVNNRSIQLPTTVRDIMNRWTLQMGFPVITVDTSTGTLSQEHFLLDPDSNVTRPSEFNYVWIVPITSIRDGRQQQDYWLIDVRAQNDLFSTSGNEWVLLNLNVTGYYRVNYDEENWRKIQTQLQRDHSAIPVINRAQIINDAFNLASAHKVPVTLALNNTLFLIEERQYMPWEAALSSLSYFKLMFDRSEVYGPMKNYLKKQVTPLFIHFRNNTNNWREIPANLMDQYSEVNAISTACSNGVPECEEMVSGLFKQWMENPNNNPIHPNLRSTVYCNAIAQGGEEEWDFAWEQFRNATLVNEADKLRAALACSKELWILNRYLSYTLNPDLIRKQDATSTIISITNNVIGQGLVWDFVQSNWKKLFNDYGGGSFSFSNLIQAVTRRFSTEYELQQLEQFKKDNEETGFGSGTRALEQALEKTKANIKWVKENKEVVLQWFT
Assay [5] addresses porcine aminopeptidase N ectodomain W424A (pig) (UniProt P15145).
Assay [6] addresses human aminopeptidase N ectodomain Y316A (human) (UniProt P15144).
Assay [7] addresses human aminopeptidase N ectodomain H789A (human) (UniProt P15144).
In assay [8] the target is human aminopeptidase N ectodomain W429A (human) (UniProt P15144).
human aminopeptidase N ectodomain W429A (human), sequence (P15144 62-963 W429A): as the sequence (P15144 62-963 E745A) above, with W368A, A684E counted along it
Assay [9] deals with porcine aminopeptidase N ectodomain E421A (pig) (UniProt P15145).
porcine aminopeptidase N ectodomain E421A (pig), sequence (P15145 58-961 E421A): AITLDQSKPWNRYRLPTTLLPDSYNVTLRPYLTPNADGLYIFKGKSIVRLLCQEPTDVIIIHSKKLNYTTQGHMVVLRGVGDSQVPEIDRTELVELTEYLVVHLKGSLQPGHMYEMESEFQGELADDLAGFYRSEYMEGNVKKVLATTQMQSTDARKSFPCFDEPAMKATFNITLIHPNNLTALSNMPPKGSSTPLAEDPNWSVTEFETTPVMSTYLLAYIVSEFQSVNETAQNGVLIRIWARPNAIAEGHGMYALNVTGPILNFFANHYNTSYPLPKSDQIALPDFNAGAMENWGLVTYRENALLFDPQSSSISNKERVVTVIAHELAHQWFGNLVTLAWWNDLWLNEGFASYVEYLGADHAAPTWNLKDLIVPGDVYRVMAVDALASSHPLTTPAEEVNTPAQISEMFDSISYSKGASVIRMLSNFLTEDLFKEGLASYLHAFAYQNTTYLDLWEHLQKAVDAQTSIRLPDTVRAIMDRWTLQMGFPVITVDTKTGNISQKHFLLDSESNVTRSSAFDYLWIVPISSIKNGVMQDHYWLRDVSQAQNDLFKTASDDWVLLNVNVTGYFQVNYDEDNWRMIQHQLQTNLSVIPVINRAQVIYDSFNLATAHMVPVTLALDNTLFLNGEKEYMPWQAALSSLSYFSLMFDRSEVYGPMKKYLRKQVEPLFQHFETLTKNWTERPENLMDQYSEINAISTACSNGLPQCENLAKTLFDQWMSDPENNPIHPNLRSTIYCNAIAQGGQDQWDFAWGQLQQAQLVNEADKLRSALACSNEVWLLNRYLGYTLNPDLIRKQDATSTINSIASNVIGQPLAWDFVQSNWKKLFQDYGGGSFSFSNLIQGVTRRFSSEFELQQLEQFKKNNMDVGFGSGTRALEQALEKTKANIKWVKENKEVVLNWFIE
Assay [10] addresses human aminopeptidase N ectodomain E426A (human) (UniProt P15144).
Assay [11] concerns the target human aminopeptidase N ectodomain K379A (human) (UniProt P15144).

Several values for one entry are separate records, joined by “and”; a condition that tells them apart may be missing. Identical values can stand only once.

porcine aminopeptidase N ectodomain, wild type (pig), sequence (P15145 58-961): as the sequence (P15145 58-961 E421A) above, with A364E counted along it
human aminopeptidase N ectodomain E426A (human), sequence (P15144 62-963 E426A): as the sequence (P15144 62-963 E745A) above, with E365A, A684E counted along it
human aminopeptidase N ectodomain Y316A (human), sequence (P15144 62-963 Y316A): as the sequence (P15144 62-963 E745A) above, with Y255A, A684E counted along it
human aminopeptidase N ectodomain E742A (human), sequence (P15144 62-963 E742A): as the sequence (P15144 62-963 E745A) above, with E681A, A684E counted along it
porcine aminopeptidase N ectodomain W424A (pig), sequence (P15145 58-961 W424A): as the sequence (P15145 58-961 E421A) above, with A364E, W367A counted along it
human aminopeptidase N ectodomain, wild type (human), sequence (P15144 62-963): as the sequence (P15144 62-963 E745A) above, with A684E counted along it
human aminopeptidase N ectodomain H789A (human), sequence (P15144 62-963 H789A): as the sequence (P15144 62-963 E745A) above, with A684E, H728A counted along it
human aminopeptidase N ectodomain K379A (human), sequence (P15144 62-963 K379A): as the sequence (P15144 62-963 E745A) above, with K318A, A684E counted along it

Consider “PDCoV RBD (receptor binding domain of the porcine deltacoronavirus spike protein), wild type (domain or fragment)”, for which the Kd in assay [1] is 42 µM and 46.5 µM; in assay [2] it was 14.3 µM and 13.2 µM; in assay [3], 3.76 µM and 3.66 µM; in assay [4] it was 3.13 µM and 3 µM; in assay [5], 113 µM and 119 µM; in assay [6] it was 35.7 µM and 38.5 µM. Moreover, the Kd is 6.47 µM and 6.03 µM in [7]; 158 µM and 97 µM in assay [8]; 103 µM and 146 µM in assay [9]; 305 µM and 362 µM in [10]; 516 µM and 371 µM in assay [11].
